Experimental data reported in US20030091584A1 (AstraZeneca / MedImmune, published 2003).
Numbering of substitutions follows the chain as printed. Several values for one entry are separate records, joined by “and”; a condition that tells them apart may be missing. Equal entries are not always repeated.

T1: RSV F glycoprotein (NUF4) (respiratory syncytial virus)
T1 chain 1: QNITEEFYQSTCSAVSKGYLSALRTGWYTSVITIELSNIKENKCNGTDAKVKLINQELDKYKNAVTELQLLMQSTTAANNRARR
T1 chain 2: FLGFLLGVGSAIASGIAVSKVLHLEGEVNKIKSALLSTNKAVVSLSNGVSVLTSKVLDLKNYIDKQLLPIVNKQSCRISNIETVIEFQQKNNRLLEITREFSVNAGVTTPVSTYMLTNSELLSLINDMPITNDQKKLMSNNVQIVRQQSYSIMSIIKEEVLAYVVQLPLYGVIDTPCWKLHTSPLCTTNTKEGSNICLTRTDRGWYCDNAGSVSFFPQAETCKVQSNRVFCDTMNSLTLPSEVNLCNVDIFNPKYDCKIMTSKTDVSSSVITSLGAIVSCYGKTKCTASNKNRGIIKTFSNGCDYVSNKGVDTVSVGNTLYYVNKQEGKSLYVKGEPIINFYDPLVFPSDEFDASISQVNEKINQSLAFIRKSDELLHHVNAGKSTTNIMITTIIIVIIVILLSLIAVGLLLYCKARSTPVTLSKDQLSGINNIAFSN

B1: P12f2 (Fab fragment) (Fab, V domains shown)
VH: QVTLRESGPALVKPTQTLTLTCTFSGFSLSTPGMSVGWIRQPPGKALEWLADIWWDDKKHYNPSLKDRLTISKDTSKNQVVLKVTNMDPADTATYYCARDMIFNFYFDVWGAGTTVTVSS
VL: DIQMTQSPSTLSASVGDRVTITCSLSSRVGYMHWYQQKPGKAPKLLIYDTFYLSSGVPSRFSGSGSGTEFTLTISSLQPDDFATYYCFQGSGYPFTFGGGTKVEIK
notes: Fab
B2: A1e9 (Fab fragment) (Fab, V domains shown)
VH: B1 VH with D57G, F105W, A112Q
VL: B1 VL with Y52K
notes: Fab; also called *Ale9
B3: P11d4 (Fab fragment) (Fab, V domains shown)
VH: B1 VH with D57G, F105W, A112Q
VL: B1 VL with L25P, F51M, Y52R, S54A
notes: Fab
B4: P12f4 (Fab fragment) (Fab, V domains shown)
VH: B1 VH with D57G, A112Q
VL: B1 VL with F51R, Y52G, S54P
notes: Fab
B5: A13a11 (Fab fragment) (Fab, V domains shown)
VH: B1 VH with P32A, F105W
VL: B1 VL with L25A, R28S, F51Y, Y52R, L53H, S54A, V103L
notes: Fab
B6: A12a6 (Fab fragment) (Fab, V domains shown)
VH: B1 VH with P32A, D57G, H60D, A112Q
VL: B1 VL with L25A, Y52K
notes: Fab
B7: A1e9 (monoclonal antibody) (antibody, V domains shown)
VH: B1 VH with D57G, F105W, A112Q
VL: B1 VL with Y52K
notes: mAb with framework and constant regions of SYNAGIS; also called Ale9
B8: A8c7 (monoclonal antibody) (antibody, V domains shown)
VH: B1 VH with P32A, H60S, F105W, A112Q
VL: B1 VL with L25A, F51R, L53Q, V103L
notes: mAb with framework and constant regions of SYNAGIS
B9: A17d4 (Fab fragment) (Fab, V domains shown)
VH: B1 VH with P32A, D57G, H60S, A112Q
VL: B1 VL with S24L, L25P, F51M, L53Q, S54A, G90F, V103L
B10: A8c7 (Fab fragment) (Fab, V domains shown)
VH: B1 VH with P32A, H60S, F105W, A112Q
VL: B1 VL with L25A, F51R, L53Q, V103L
B11: P12f2 (monoclonal antibody) (antibody, V domains shown)
VH: B1 VH
VL: B1 VL
notes: mAb with framework and constant regions of SYNAGIS; also called Pf12
B12: P12f4 (monoclonal antibody) (antibody, V domains shown)
VH: B1 VH with D57G, A112Q
VL: B1 VL with F51R, Y52G, S54P
notes: as for B8
B13: P11d4 (monoclonal antibody) (antibody, V domains shown)
VH: B1 VH with D57G, F105W, A112Q
VL: B1 VL with L25P, F51M, Y52R, S54A
notes: as for B8
B14: A12a6 (monoclonal antibody) (antibody, V domains shown)
VH: B1 VH with P32A, D57G, H60D, A112Q
VL: B1 VL with L25A, Y52K
notes: as for B8
B15: A1h5 (Fab fragment) (Fab, V domains shown)
VH: B1 VH with D57G, F105W, A112Q
VL: B1 VL with R28S, Y52F, L53H, S54R, V103L
B16: A4B4 (Fab fragment) (Fab, V domains shown)
VH: B1 VH with P32A, A112Q
VL: B1 VL with L25A, Y52F, S54D, V103L
B17: 6H8 (Fab fragment) (Fab, V domains shown)
VH: B1 VH with P32A, H60D, D67S, F103T
VL: B1 VL with L25A, R28S, Y52K, S54T, V103L
B18: DG (Fab fragment) (Fab, V domains shown)
VH: B1 VH with P32A, H60D, D67S, F103T
VL: B1 VL with L25A, R28S, Y52K, S54A, V103L
B19: 1X-493L1FR (Fab fragment) (Fab, V domains shown)
VH: B1 VH with P32S, H60D, D67S, D100S, F103T, F105W
VL: B1 VL with L25A, R28S, F51S, Y52K, S54A, V103L
B20: M3H9 (Fab fragment) (Fab, V domains shown)
VH: B1 VH with P32A, H60D, D67S, F105W
VL: B1 VL with L25A, R28S, F51Y, Y52K, L53Q, S54T, V103L
B21: H3-3F4 (Fab fragment) (Fab, V domains shown)
VH: B1 VH with P32A, H60D, D67S, F105W
VL: B1 VL with L25A, R28S, Y52K, S54A, V103L
B22: Y10H6 (Fab fragment) (Fab, V domains shown)
VH: B1 VH with P32A, H60D, D67S, F105W
VL: B1 VL with L25A, R28S, F51R, V103L

biological target: T2, F protein of wild type RSV A/Long (respiratory syncytial virus strain …, UniProt P12568 26-574); test: cell-based or functional assay

Row | Binder | EC50 (nM), in vitro microneutralization of RSV Long [nM]
1 | B1 | 0.65
2 | B2 | 2.5
3 | B3 | > 20
4 | B4 | 0.7
5 | B5 | 2.04
6 | B6 | 0.62

biological target: T2, F protein of wild type RSV A/Long; test: cell-based or functional assay; remark: another data set of the same source

Row | Binder | Fold Difference (Control IC50) [fold] | Fold Difference (Curve IC50) [fold] | Mean IC50 (Control), RSV microneutralization [µg/mL] | Mean IC50 (Curve), RSV microneutralization [µg/mL]
7 | B7 | 8 | 7 | 0.0645 | 0.0625
8 | B1 | 16 | 11 | 0.0326 | 0.0407
9 | B2 | 4 | 3 | 0.125 | 0.157
10 | B8 | 14 | 13 | 0.0383 | 0.0337
11 | B9 | 31 | 25 | 0.0171 | 0.0179
12 | B10 | 34 | 3 | 0.157 | 0.177
13 | B11 | 24 | 20 | 0.0223 | 0.0231
14 | B3 |  |  | > 1 | > 1
15 | B12 | 23 | 19 | 0.0235 | 0.0242
16 | B4 | 15 | 10 | 0.0351 | 0.0464
17 | B13 | 19 | 21 | 0.0289 | 0.0217
18 | B14 | 15 | 13 | 0.0354 | 0.0357
19 | B5 | 5 | 4 | 0.102 | 0.12
20 | B15 | 3 | 2 | 0.176 | 0.194
21 | B16 | 13 | 11 | 0.0411 | 0.0414
22 | B6 | 17 | 16 | 0.031 | 0.0287

Biological target: T1, RSV F glycoprotein (NUF4)
Test: BIAcore, mAb vs NUF4 (1:1)

Row | Binder | Kd [nM] | koff [s⁻¹] | kon [M⁻¹ s⁻¹] | number in parentheses after KD (fold against SYNAGIS = 1) [fold]
23 | B7 | 0.69 | 0.000584 | 843000 | 13
24 | B8 | 0.65 | 0.000535 | 825000 | 13
25 | B11 | 0.33 | 0.000178 | 541000 | 26
26 | B12 | 0.24 | 0.000229 | 943000 | 36
27 | B13 | 0.85 | 0.000766 | 904000 | 10
28 | B14 | 0.73 | 0.000291 | 400000 | 12

Biological target: T1, RSV F glycoprotein (NUF4)
Test: BIAcore, mAb vs NUF4 (2:1)

Row | Binder | Kd [nM] | koff [s⁻¹] | kon [M⁻¹ s⁻¹] | number in parentheses after KD (fold against SYNAGIS = 1) [fold]
29 | B7 | 4.22 | 0.00139 | 329000 | 74
30 | B8 | 2.65 | 0.00114 | 430000 | 118
31 | B11 | 0.84 | 0.000236 | 282000 | 371
32 | B12 | 2.33 | 0.000636 | 273000 | 134
33 | B13 | 8.55 | 0.00313 | 366000 | 36
34 | B14 | 1.87 | 0.000408 | 218000 | 167

biological target: RSV F protein (immobilized on the BIAcore sensor chip) (respiratory syncytial virus); test: BIAcore, immobilized F protein;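 note: fab fragments as analytes binding F protein coupled to the chip via EDC/NHS chemistry, with blank surface signal subtracted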

Row | Binder | koff | kon
35 | B1 | 0.000282 s⁻¹ | 663000 M⁻¹ s⁻¹
36 | B2 | 0.000453 s⁻¹ | 790000 M⁻¹ s⁻¹
37 | B17 | 0.000178 s⁻¹ and 0.000473 s⁻¹ | 314000 M⁻¹ s⁻¹ and 444000 M⁻¹ s⁻¹
38 | B18 | 0.000167 s⁻¹ and 0.000444 s⁻¹ | 
39 | B3 | 0.000717 s⁻¹ | 570000 M⁻¹ s⁻¹ and 572000 M⁻¹ s⁻¹
40 | B19 | 0.00065 s⁻¹ | 185000 M⁻¹ s⁻¹
41 | B20 | 0.000338 s⁻¹ | 605000 M⁻¹ s⁻¹
42 | B4 | 0.000299 s⁻¹ | 527000 M⁻¹ s⁻¹
43 | B5 | 0.00025 s⁻¹ | 735000 M⁻¹ s⁻¹
44 | B21 | 0.000445 s⁻¹ and 0.000402 s⁻¹ | 
45 | B22 | 0.000462 s⁻¹ | 757000 M⁻¹ s⁻¹
46 | B6 | 0.00023 s⁻¹ | 743000 M⁻¹ s⁻¹
